Results taken from the nanobody polyreactivity screen of Harvey et al. (2022).

Test: yeast display, Sf9 membrane polyspecificity reagent, FACS + sequencing; frameworks hold sequencing errors
Method in brief: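 Galactose-induced (36–48 hours) yeast carrying a synthetic nanobody display library were exposed to 10% biotinylated, detergent-solubilized Sf9 membrane reagent at 4 °C for 1 hour. FACS followed streptavidin microbead enrichment, using low and high (top ~1%) gates for expression (anti-HA) and reagent binding (streptavidin). Colony PCR, MiSeq 2 × 250 sequencing and CDR-length filtering followed. Labels for polyreactivity reflect the gate of origin.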

| Sequence | polyreactivity (PSR sort gate) |
| --- | --- |
| QVQLVESGGGLVQAGGSLRLSCAASGIIFWKYAMGWYRQAPGKERELVAAISSRGGSTYYADSVKGRLTISRDNAKNTVYLQMNSLKPEDTAVYYCAGEDWYYGFDYWRQGTQVTVSS | high polyreactivity |
| QVQLVESGGGLVQAGGSLRLSCAASGSIFGYYAMGWYRQAPGKERELVAAISGSGGSTYYADSVKGRFTISRDNAKNTVYLQMNSLKPEDTAVYYCAAAYHGRHYYWGQGTQVTVSS | high polyreactivity |
| QVQLVESGGGLVQAGGSLRLSCAASGFIFSRNAMGWYRQAPGKERELVAAITRGGITYYADSVKGRFTISRDNAKNTVYLQMNSLKPEDTAVYYCAAYRTYQAYTGSHYYYWGQGTQVTVSS | high polyreactivity |
| QVQLVESGGGLVQAGGSLRLSCAASGSTFWAYAMGWSRQAPGKERELVAAITSGGSTYADSVKGRFTISRDNAKNTVYLQMNSLKPEDTAVYYCAADVYYSGWWFDYWGQGTQVTVSS | high polyreactivity |
| QVQLVESGGGLVQAGGSLRLICAASGSIFSVNTMGWYREAPGKERELVATIRTGDSTNYADSVKGRFTISRDNAKNTVYLQMNSLKPEDTAVYYCAAEWSSLNFDYWGQGTQVTVSS | low polyreactivity |
| QVQLVESGGGLVQAGGSLRLSCAASGFIFGSNVMGWYRQAPGKERELVAAITSGSRTYYADSVKGRFTISRDNAKNTVYLQMNSLKPEDTAVYYCAKRNPIKYYGGGYWGQGTQVTVSS | high polyreactivity |
| QVQLVESGGGLVQAGGSLRLSCAASGYIFHYNAMGWYRQAPGKEREFVAAISQGGGSTYYADSVKGRFTISRDNAKNTVYLQMNSLKPEDTAVYYCAADYRSGYREMDYWGQGTQVTVSS | low polyreactivity |
| QVKLVESGGGLVQAGGSLRLSCAASGSIFLVKVMGWYRQAPGKERELVAAITWSGGRTYYADSVKGRFTISRDNAKNTVYLQMIILKPEDTAVYYCAAEGWLLNGDSWGQGTQVTVSS | high polyreactivity |
| QVQLVESGGGVVQAGGSLRLSCAASGSTFVFYTMGWSRQAPGKEREFVASISGSGGSTYYADSVKGRFTISRDNAKNTVYLQMNSLKPEDTAVYYCAAGYPYYYWTPYYYWGQGTQVTVSS | high polyreactivity |
| QVQLVESGGGLVQAGGSLRLSCAASGSIFGNAMGWYRPAPGKERELVAAISRRGGRTYYADSVKGRFTISRDNAKNTVYLQMNSLKPEDTAVYYCANTAKTWGWWLRGYGYWGQGTQVTVSS | high polyreactivity |
| QVQLVESGGGLVQAGGSLRLSCAASGSIFYTYAMGWYRQAPGKERELVAGISWRGGSTYYADSVKGRYTISRDNAKNTVYLQMNSLNPEDTAVYYCAASYFWDRVPGRGIHDYWGQGTQVTVSS | high polyreactivity |
| QVQHVESGVGLVQAGGSLRLSCAASGSTFDRYAMRWYRQAPGKERELVAAISWSAGRTYYADSVKGRFTISRDNAKNTVYLQMNSLKPEDTAVYYCAADQIVSGTYDYYWGQGTQVTVSS | low polyreactivity |
| QVQLVESGGGLVQAGGSLRLSCAASGSIFFEYAMGWYRQAPGKERELVAAISRRGGSTYYADSVKGRFTISRDNAKNTVYLQMNSLKPEDTAVYYCNKVNRASRGDYDYWGQGTQVTVSS | high polyreactivity |
| QVQLVESGGGLVQAGGSLRLSCAASGIIFYYYAMGSDRQAPGKERELVAAITSSGVRTYYADSVKGRFTISRDNAKNTVYLQMNSLKPEDTAVYYCAASSVLYSRSYDYWGQGTQVTVSS | high polyreactivity |
| QVQLVESGGGLVQAGGSLRLSCAPSGITFFYNTMGWYRQAPGKERELVAAISVSGGGTYYADSVKARFTISRDNAKNTVYLQMNSLKPEDTAVYYCNKVQVRQRRYDYWGQGTQVTVSS | low polyreactivity |
| QVQLVESGGGLVQAGGSLRLSCAASGSIFADNTMGWSRQSPGKERELVAAITSSGRTYYADSVKGRFTISRDNAKNTVYLQMNSLKPEDTAVYYCAAVIYFHDYSPYYYWGQGTQVTVSS | high polyreactivity |
| QVQLVESGGGLVQAGGSLRLSCAASGFTFYTYAMGWYRQAPGKERELVAAINRSGGRTFYADSVKGRFTISRDNAKNTDYLQMNSLKPEDTAVYYCAADSRPYVGGMDYWGQGTQVTVSS | high polyreactivity |
| QVQLVESGGGLVQAGGSLRLSCAASGFIFASYAMGWYRQAPGKERELVAAISYRGGTTYYADSVKGRFTISRDNAKNTVYLQMNSLKPEDTALYYCAADSPENRYNYWGQGTQVTVSS | high polyreactivity |
| QVHLVESGGGLVEAAVSLRLSYAASGITVKSYAMGSYRQAPGKERELVADISSSGGTTYYADYVKGRFTISRDNAKNTVYLKMKSLKAEHTAVYYCNAKWGRYFSGGYGDEYDYWGQGTQVTVSS | high polyreactivity |
| QVQLVESGGGLVQAGGSLRLSCAASGLTFVQYAMGWYRQAPGKERELVATISKSGGFTYYADSVKGRFTISRDNATNTVYLQMNSLKPEDTAVYYCAAAWYYSSRGFHASWGHDYWGQGTQVTVSS | low polyreactivity |
| QVHLVESGGGLVQAGGSLRLSCAASGFTFGVYAMGWYRQAPGKEREFVAAISTTVGSTYYADSVKGRFTISRDNAKNTVYLQLNSLKPEDTAVYYCAAEYTGYINYYIYEYWGQGTQVTVSS | low polyreactivity |
| QVQLVESAGRLVKAGGSLRLSCDASGSIFKGNAMGWYRQEPGKERELVAAISRTGGSTYYADSVKGRFTISRDNAKNTVYLQMNSLKPEDTAVYYCAAYSASTYDSWGQGTQVTVSS | high polyreactivity |

| Sequence | polyreactivity (PSR sort gate) |
| --- | --- |
| QVQLVESGGGLVQAGGSLRLSCAASGSIFVGYTMGWYRQAPGKERELVAAITSTGGSTSYADSVKGRFTISRDNAKNTVYLQMNSLKPEDTAVYYCAARGRGKTTSVAYYYWGQGTQVTVSS | high polyreactivity |
| QVQLVESGGGLVQAGGSLRLSCASSGRIFRGYAKGGYRQAPGKERELVADISSGASTNYADSVKGRFTISRDNAKNSVYLQMNRLKPEDTAVYYCAASIYAALIGGPGYDYWGQGTQVTVSS | low polyreactivity |
| QVQLVESGGGLVQAGGSLRLSSAASGSTFLVYSMGWSRQAPGKERELVAAIRGAGSTNYADSVKGRFTISRDNAKNTVYLQMIRLKPEDTAVYYCAAYLLYTPSMDYWGQGTQVTVSS | low polyreactivity |
| QVQLVESGGGLVQAGGSLRISCAASGRTFYSYAMGWYRQAPGKERELVAAITWRASTYYADSVKGRFTISRDNAKNTVYLQMNSLKPEDTAVYYCAVRDYRPRYYTFLYNSPYDYWGQGTQVTVSS | high polyreactivity |
| QVQLLESGGGLVQAGGSLRLSCAASGRIFVTYAMGWYRQAPGKERELVAAITSRGGRTYYADSVKGRFTISRDNAKNTVYLQMNSLKPEATAVYYCAAYPGPGARYYYWGQGTQVTVSS | high polyreactivity |
| QVQLLESGGMVQAGGLRLSCAASGSVSYQEAMGWYRQAPGKERELVATISFGANTNYADSVKGRFTISRDNAKNTVYLQMNSLKPEDTAVYYCAAESLFYDYYGYWGQGTQVNVSS | low polyreactivity |
| QDQLVESGGGLVQARGSLRLSCAASGSIYSRNALGWYRQAPGKERELVAAITYRGGNTYYADSVKGRFTISRDNANNNLYLQMNSLKPEDTAVYYCAADTYGWLYAFEYWGQGTQVTVSS | low polyreactivity |
| QVQLVETGGGLVQAGGSLRLSCAASAFTFASYAMGWYRQAPGKEREFVAAITRSGGSTYYADSVKGRFTISRDNAKNTVYLQMNSLKPEDTAVYYGAAQYHGGISQRLYYWGQGTQVTVSS | high polyreactivity |
| KVQLVESGGGLVQAGGSLRLSCAASGSISANYAMGWYRQAPGKERELVAAISRRGASTYYADSVKGRFTISRDNAKNTVYLQMNSLKPEDTAVYYCNAKKYHVPGVDYWGQGTQVTVSS | high polyreactivity |
| QVQLVESGGGLVQAGGSLRLSCAASGSIFIVYAMGWYRQAPGKERELVAAISYRGGSTYADSVKGRFTISRDNAKNTVYLQMNSLKPEDTAVYYCAADDLSYVGYYYGYVDDDYWGQGTQVTVSS | high polyreactivity |
| QVQLVESGGGLVQAGGSLRLSCAASGRIIGYNAMGWYRQAPGKERELVASIRYSGGSTYYADSVKGRFTISRDNAMNTVYLQMNSLKPEDTAVYYCATRVTYRRRFDYWGQGTQVTVSS | high polyreactivity |
| QVQLVESGGGLVQAGGSLRLSCAASGSTLSVYAKGSYIQAPGKEREFVASISSSVGRTFYADSVKGRFTISRDNANNTVYLQMNSLNQEDTAVYYCAARRRTFYASSSAINGYDYWRQGTQVTVSS | high polyreactivity |
| QVQLVEAAGGLVQAGGSLRLSCAASGSIFRNNAMGWYSPAPGKARELVAVISRRSGNTYYADSVKGRLTISRENAKNPVYLLMNSLKPEDSAVYYCAADYSNSSIRGDYWGQGTEVTVSS | low polyreactivity |
| QVQLVESGGGLFHAGGSLRLSFAASGSILYNAMGWYRQAPGKERELVAAIDSTSVDTYYADSVKGRFTISRDNAKNTVYLQMNSLKPEDTAVYYCSADYVYDDEGDFWGQGTQVTVSS | high polyreactivity |
| QVQLVESGGGLVQAGGSLRLSCAASGFTFPVYAMGWYRQAPGKEREFVAAITYIGGSTDADSVKGRFTISRDNAKNTVYLQMNSLKPEDTAVYYCAADIITEYRADYLVYLEYDYWGQGTQVTVSS | low polyreactivity |
| QVQLVESGGGLVQAGRSLRLSCAASGSTFWFYAMGWYRQAPGKERELVASINSGGSTYYADSVKGRFTISRDNAKNTVYLQMNSLKPEDTAVFYCAADAYSWWGRWERYPYTTMYYWGQGTQVTVSS | low polyreactivity |
| QVQLVESGGGLDQAGGSLRLSCAASGRTFFYNAMGWYRQAPGKESEWDAAISYSGGSTYYADSVKGRFTISRDNAKNTVYLQMNSLKPEDTAVYYCAARDKTRSVRRTGMDYWGQGTQVTVSS | high polyreactivity |
| QVQLVESGGGLVQAGGSLRLSCAATGHTFHGYAMGWYRPAPGKERELVAAITSTGGSTHYADSVKGRFTISRDNAKNTVYLQMNSLKPEDTAVYYCAKRSYGLTRAYSAGNYWGQGTQVTVSS | low polyreactivity |
| QVQLVESVGGLVQAGGSLRLSCPASGFIFSGHTMGWYRQAPGKERELVAAITSGGGRTYYADSVKGRFTISRDNAKNTVYLQMNSLKPEDTAVYYCNTAFVYEYDYWGQGTQVTVSS | high polyreactivity |
| QVQLVESGGGLDQAGGSLRLSCAASGSIYWNNAMGWYRQAPRKERELDAAISKSGTRTYYADSVKGRFTISRDNAKNTVYLQMNSLKPEDTAVYYCNALLSDSGTYAGDDYWGQGTQVTVSS | high polyreactivity |
| QVQLVESGGGLVQAGGSLRLSCAASGFTFYPYAMGCYRQAPGKERELVDAISNGASTHYADSVKGRFTISRDNAKNTVYLQMNSLKPEDTAVYYCNAYTRYPFYFVTSKYDYWGQGTQVTVSS | low polyreactivity |
